{"source": "paper PMC3680494", "about": "“Genomics-Guided Analysis of NAD Recycling Yields Functional Elucidation of COG1058 as a New Family of Pyrophosphatases” (PLoS ONE, 2013)", "proteins": {"B1": {"name": "AtCOG1058 (Agrobacterium fabrum str. C58) (protein)", "chain": "MSNPSSTSSVVTAAMLAIGDELLSGRTKDKNIGHLADVLTMSGIDLKEVRIVADEEESIVEALNALRSRYDYVFTSGGIGPTHDDITADAISAAFGLPCEHDAEALRLLGDMYRVREMEFTEARKRMARMPKGAAHIANPVSVAPGFVIGNVYVMAGVPQVFQAMLDNVMPTLRTGAKVMSQAVRSPYGEGDIGTPLTAIQKAHPETSIGSYPKYDGQRFSTEIVVRARDAGLLKAATEAVAAMIEAIGQEKQLAASKGDATA", "notes": "stand-alone COG1058 protein cloned from genomic DNA in pET100/D-TOPO; N-terminal His tag; E. coli BL21(DE3); HisTrap purified"}}, "substrate": "Nc1ncnc2c1ncn2[C@@H]1O[C@H](CO[P@](=O)(O)O[P@](=O)(O)OC[C@H]2O[C@@H](n3cnc4c(N)ncnc43)[C@H](O)[C@@H]2O)[C@@H](O)[C@H]1O", "assay": "HPLC of mononucleotide formed, Michaelis-Menten fit", "assay_type": "biochemical, Agrobacterium fabrum", "conditions": "pH 7.5 (100 mM TRIS/HCl), 1 mM CoCl2, 100 mM KCl, 37°C"}
{"protein": "B1", "values": [{"measurement": "Km", "value": "210 ± 22", "unit": "µM"}, {"measurement": "kcat", "value": "5.6 ± 0.7", "unit": "s⁻¹"}]}
